{
  "source": "patent US20160032398A1",
  "about": "“METHODS FOR TREATING CANCER” (COMBIMMUNE, INC., priority 2013, published 2016)",
  "key": {"[1]": {"test_system": "B16 melanoma tumors", "assay": "Mouse model of melanoma treated with chemerin: tumor-infiltrating leukocytes by FACS (Example 5)", "format": "in vivo, mice (C57BL/6)", "description": "(§1) A mouse model of melanoma was used to study the effect of an immunomodulator, chemerin (RARRES2) (Pachynski et al. J. Exp. Med. 209(8):1427-1435, 2012). Both control and chemerin-over expressing tumors were transplanted into mice. Intratumoral injections of chemerin were also evaluated. For all animal experiments, C57BL/6 or B6.129S7-Rag1tm1Mom/J (RAG1 KO) mice were purchased from the Jackson Laboratory. Murine B16F0 melanoma, L1.2 B lymphoma, and human 293 HEK lines were obtained from the American Type Culture Collection. Cell lines were grown in complete media consisting of RPMI 1640 supplemented with 10% FBS, sodium pyruvate, penicillin/streptomycin, and beta-mercaptoethanol.\n(§2) To evaluate the effect of constitutively secreted chemerin on tumor growth, control or chemerin-expressing B16 melanoma tumor cells (0.5×10^6 or 1×10^6) were inoculated subcutaneously into mice. Tumor growth was measured every 2-4 d by calipers, and size was expressed as the product of perpendicular length by width in square millimeters. Mice were euthanized when tumor size reached about 400 mm^2 or when tumor sites ulcerated or at day 17 to evaluate for tumor-infiltrating leukocytes (TILs) by FACS.\n(§3) To evaluate the effect of exogenous chemerin on tumor growth, tumor lines were inoculated as indicated. Recombinant, active, carrier-free murine chemerin (R&D Systems) was reconstituted in sterile PBS. […]"}, "[2]": {"test_system": "B16 melanoma tumors", "assay": "Mouse model of melanoma treated with chemerin: tumor growth, with NK cell depletion (Example 5)", "format": "in vivo, mice (C57BL/6)", "conditions": "FIG. 10", "description": "as §1, §2, §3"}, "[3]": {"test_system": "B16 melanoma tumors", "assay": "Chemerin-secreting B16 melanoma tumors: tumor-infiltrating leukocytes (Example 10)", "format": "in vivo, C57BL6 mice", "conditions": "tumors engineered to secrete chemerin vs control tumors; FIG. 9", "source_text": "(§4) In order to determine the effect of chemerin on the TGS components in a mouse model, B16 melanoma tumors were implanted subcutaneously in C57BL6 mice. One cohort of mice received control tumors that received no treatment. The other cohort received tumors that were engineered to secrete the chemoattractant chemerin locally, thereby mimicking intratumoral injections of the chemoattractant."}, "[4]": {"test_system": "B16 melanoma tumors", "assay": "Chemerin-secreting B16 melanoma tumors: tumor size (Example 10)", "format": "in vivo, C57BL6 mice", "conditions": "chemerin (RARRES2) secreting tumors vs control tumors; p<0.05; FIG. 11", "source_text": "as §4\nClinically, the changes in the number of tumor-infiltrating leukocytes also correlated with tumor growth as well."}, "[5]": {"test_system": "CD137 (TNFRSF9)", "assay": "RT-qPCR of tumors for CD137 (Example 10)", "format": "in vivo, C57BL6 mice", "conditions": "after 17 days; chemerin tumors (n=5) vs control group (n=4); GAPDH reference; FIG. 12", "description": "as §4\n(§5) After a period of 17 days, tumors were analyzed by RT-qPCR for LMO2 and CD137 (TNFRSF9), the key components of the TGS. […] Accordingly, a calculated TGS from the tumors would result in improved/lowered TGS score for the chemerin-treated group, whereas the control group that was not treated, and thus had fewer infiltrating NK and T cells, would have a worse/higher TGS score. GAPDH was used as the housekeeping/reference gene (not shown)."}, "[6]": {"test_system": "LMO2", "assay": "RT-qPCR of tumors for LMO2 (Example 10)", "format": "in vivo, C57BL6 mice", "conditions": "after 17 days; chemerin tumors vs control; FIG. 12", "description": "as §4, §5"}, "[7]": {"test_system": "B16 melanoma tumors", "assay": "Control, EGFR-expressing and chemerin-secreting B16 tumors: tumor-infiltrating leukocytes by FACS (Example 11)", "format": "in vivo, mice", "conditions": "chemerin-secreting B16 tumors; Day 11; FIG. 13B", "description": "(§6) In a separate experiment, three cohorts of mice were inoculated with B16 melanoma tumors. […] Each group comprised three mice. Tumors were allowed to grow until Day 9. […] Forty-eight hours after the single injection (Day 11), the tumors from all three groups were analyzed for infiltrating NK and T cells, as well as CD137 (TNFRSF9) expression."}, "[8]": {"test_system": "CD137 (TNFRSF9)", "assay": "CD137 expression on tumor-infiltrating leukocytes by FACS (Example 11)", "format": "in vivo, mice", "conditions": "chemerin-secreting B16 tumors; vs control tumors treated with cetuximab; FIG. 14", "description": "as §6"}, "[9]": {"test_system": "B16 melanoma tumors", "assay": "Control, EGFR-expressing and chemerin-secreting B16 tumors: tumor size (Example 11)", "format": "in vivo, mice", "conditions": "chemerin-secreting B16 tumors; Day 11; vs control tumors treated with cetuximab; FIG. 16", "description": "as §6\nThe same tumors from the three groups were analyzed for tumor size (mm^2), a surrogate for clinical outcomes and survival, at pretreatment ([…]) and post-treatment (Day 11)."}, "[10]": {"test_system": "CD137", "assay": "RT-qPCR of tumor biopsies for CD137 (Example 11)", "format": "in vivo, mice", "description": "as §6\nTumor biopsies from the three treatment groups were also analyzed by RT-qPCR to measure LMO2 and CD137 expression.\nThe TGS takes into account the relative expression levels of both CD137 and LMO2. Therefore, the ratio of relative expression of CD137 to LMO2 was determined."}},
  "data": [
    {"molecule": "chemerin: chemoattractant polypeptide that attracts cells including NK cells, T cells, macrophages and dendritic cell subsets; given recombinant or secreted by engineered tumors (protein, UniProt Q99969 21-157, looked up) Retinoic acid receptor …: ELTEAQRRGLQVALEEFHKHPPVQWAFQETSVESAVDTPFPAGIFVRLEFKLQQTSCRKRDWKKPECKVRPNGRKRKCLACIKLGSEDKVLGRLVHCPIETQVLREAEEHQETQCLRVQRAGEDPHSFYFPGQFAFS", "values": [
      {"measurement": "NK and T cells in murine tumors", "setting": "[1]; FIG. 8", "result": "increase in NK and T cells"},
      {"measurement": "infiltrating leukocyte subsets in murine tumors (activated NK and T cells)", "setting": "[1]; FIG. 9", "result": "increased the representation of activated NK and T cells"},
      {"measurement": "clinical efficacy on tumor growth after depletion of NK cells", "setting": "[2]; NK cells depleted with anti-Asialo GM1", "result": "abrogated the clinical efficacy"},
      {"measurement": "tumor growth", "setting": "[2]; mice", "result": "inhibit tumor growth"},
      {"measurement": "tumor-infiltrating leukocytes (NK and T cells)", "setting": "[3]", "result": "increase in tumor-infiltrating leukocytes"},
      {"measurement": "tumor size", "setting": "[4]", "result": "significantly smaller than control tumors"},
      {"measurement": "CD137 (TNFRSF9) expression by RT-qPCR", "setting": "[5]", "result": "significantly increased"},
      {"measurement": "LMO2 expression by RT-qPCR", "setting": "[6]", "result": "not significantly changed"},
      {"measurement": "CD8+ T cells and NK cells of CD45+ TIL", "setting": "[7]", "result": "small increases in both CD8+ T cells and NK cells"},
      {"measurement": "CD137 expression on total tumor-infiltrating leukocytes (FACS)", "setting": "[8]", "result": "increase in CD137 expression"},
      {"measurement": "tumor size", "setting": "[9]", "result": "significantly smaller than control tumors"},
      {"measurement": "CD137:LMO2 ratio of relative expression", "setting": "[10]; chemerin treated tumors vs non-EGFR and cetuximab treated tumors, FIG. 19", "result": "greater"},
      {"measurement": "relative CD137 expression (RT-qPCR)", "setting": "[10]; tumors treated with chemerin, 48 hours time point, FIG. 17B", "result": "significantly higher"}
    ]}
  ]
}
